According to paper PMC9482650, “Quantitative fragmentomics allow affinity mapping of interactomes” (Nature Communications, 2022):

Columns and labels:
Experiment in all cases: holdup assay
Set-up in all cases: key: below the threshold = too weak to quantify, mostly under pKd 3.1 to 4
Details in all cases: plain residues with an end cap or a label only (N-terminal biotin on a linker: ado-ado)
ARHGAP21, Q5T5U3 = biological target: T1, ARHGAP21, Q5T5U3
T1 sequence (Q5T5U3 45-169, limits assumed, looked up): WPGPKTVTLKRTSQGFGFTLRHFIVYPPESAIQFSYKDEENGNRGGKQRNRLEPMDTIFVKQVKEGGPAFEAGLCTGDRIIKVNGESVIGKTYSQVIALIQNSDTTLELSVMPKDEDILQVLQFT

ARHGEF11, O15085 = biological target: T2, ARHGEF11, O15085
T2 sequence (O15085 42-136, limits assumed, looked up): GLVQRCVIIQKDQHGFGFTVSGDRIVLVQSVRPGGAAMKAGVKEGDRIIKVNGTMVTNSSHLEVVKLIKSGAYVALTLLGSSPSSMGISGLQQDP

DFNB31_3, Q9P202 = biological target: T3, DFNB31_3, Q9P202
T3 sequence (Q9P202 811-907, limits assumed, looked up): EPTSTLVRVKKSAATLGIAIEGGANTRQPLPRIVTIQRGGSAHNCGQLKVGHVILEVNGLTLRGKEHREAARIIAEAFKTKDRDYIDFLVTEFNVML

DLG4_2, P78352 = biological target: DLG4_2, P78352
Chain of DLG4_2, P78352 (P78352 155-259): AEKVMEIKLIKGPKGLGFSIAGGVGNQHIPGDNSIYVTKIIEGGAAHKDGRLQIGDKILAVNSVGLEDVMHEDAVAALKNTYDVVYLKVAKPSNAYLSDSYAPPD

FRMPD2_1, Q68DX3 = biological target: FRMPD2_1, Q68DX3
Chain of FRMPD2_1, Q68DX3 (Q68DX3 770-861): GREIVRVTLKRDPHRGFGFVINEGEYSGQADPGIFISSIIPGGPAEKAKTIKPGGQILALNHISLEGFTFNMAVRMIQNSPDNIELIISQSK

GRIP1_2, Q9Y3R0 = biological target: T4, GRIP1_2, Q9Y3R0
T4 sequence (Q9Y3R0 145-248, limits assumed, looked up): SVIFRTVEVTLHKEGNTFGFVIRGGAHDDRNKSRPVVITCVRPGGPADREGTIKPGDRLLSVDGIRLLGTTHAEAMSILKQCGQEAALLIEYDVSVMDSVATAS

GRIP1_7, Q9Y3R0 = biological target: T5, GRIP1_7, Q9Y3R0
T5 sequence (Q9Y3R0 999-1096, limits assumed, looked up): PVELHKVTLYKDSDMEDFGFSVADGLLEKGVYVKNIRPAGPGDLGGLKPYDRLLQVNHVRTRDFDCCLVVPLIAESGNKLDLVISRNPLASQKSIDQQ

GRIP2_5, Q9C0E4 = biological target: GRIP2_5, Q9C0E4
Chain of GRIP2_5, Q9C0E4 (Q9C0E4 544-642): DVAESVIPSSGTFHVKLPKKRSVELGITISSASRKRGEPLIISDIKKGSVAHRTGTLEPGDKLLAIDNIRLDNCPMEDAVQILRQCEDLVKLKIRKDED

IL16_3, Q14005 = biological target: IL16_3, Q14005
Chain of IL16_3, Q14005 (Q14005 1107-1207): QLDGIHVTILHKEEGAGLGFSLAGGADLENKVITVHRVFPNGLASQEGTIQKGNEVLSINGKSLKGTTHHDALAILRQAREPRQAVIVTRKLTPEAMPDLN

IL16_4, Q14005 = biological target: IL16_4, Q14005
Chain of IL16_4, Q14005 (Q14005 1229-1329): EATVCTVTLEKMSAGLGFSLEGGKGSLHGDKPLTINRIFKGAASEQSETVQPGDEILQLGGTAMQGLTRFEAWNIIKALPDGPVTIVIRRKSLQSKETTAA

Inadl_3, Q8NI35 = biological target: Inadl_3, Q8NI35
Chain of Inadl_3, Q8NI35 (Q8NI35 359-469): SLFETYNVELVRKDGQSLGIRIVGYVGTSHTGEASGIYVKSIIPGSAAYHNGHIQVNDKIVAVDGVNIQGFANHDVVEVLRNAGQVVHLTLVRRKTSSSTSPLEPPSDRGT

LAP2, Q96RT1 = biological target: LAP2, Q96RT1
Chain of LAP2, Q96RT1 (Q96RT1 other isoform, or with tags, fused parts or gaps): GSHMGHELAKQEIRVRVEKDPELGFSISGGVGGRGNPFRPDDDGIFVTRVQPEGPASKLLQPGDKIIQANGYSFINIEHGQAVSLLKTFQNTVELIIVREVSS

LNX1_3, Q8TBB1 = biological target: LNX1_3, Q8TBB1
Chain of LNX1_3, Q8TBB1 (Q8TBB1 500-596): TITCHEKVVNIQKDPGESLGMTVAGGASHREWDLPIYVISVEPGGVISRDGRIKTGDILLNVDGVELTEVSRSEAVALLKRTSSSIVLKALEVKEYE

LNX2_3, Q8N448 = biological target: T6, LNX2_3, Q8N448
T6 sequence (Q8N448 463-564, limits assumed, looked up): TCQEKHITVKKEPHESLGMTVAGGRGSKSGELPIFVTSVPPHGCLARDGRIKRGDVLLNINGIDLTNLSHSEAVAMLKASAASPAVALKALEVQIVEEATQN

MAGI2_3, Q86UL8 = biological target: MAGI2_3, Q86UL8
Chain of MAGI2_3, Q86UL8 (Q86UL8 600-682): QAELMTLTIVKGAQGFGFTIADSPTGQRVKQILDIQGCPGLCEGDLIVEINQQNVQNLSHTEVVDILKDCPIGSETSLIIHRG

MAGI2_6, Q86UL8 = biological target: MAGI2_6, Q86UL8
Chain of MAGI2_6, Q86UL8 (Q86UL8 1141-1229): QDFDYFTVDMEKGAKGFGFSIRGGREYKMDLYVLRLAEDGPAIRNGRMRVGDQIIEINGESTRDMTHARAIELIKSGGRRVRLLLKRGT

MAST1, Q9Y2H9 = biological target: MAST1, Q9Y2H9
Chain of MAST1, Q9Y2H9 (Q9Y2H9 962-1065): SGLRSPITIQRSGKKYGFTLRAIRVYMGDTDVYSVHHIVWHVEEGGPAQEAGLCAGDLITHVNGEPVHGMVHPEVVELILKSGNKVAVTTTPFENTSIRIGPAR

MPDZ_10, O75970 = biological target: T7, MPDZ_10, O75970
T7 sequence (O75970 1624-1722, limits assumed, looked up): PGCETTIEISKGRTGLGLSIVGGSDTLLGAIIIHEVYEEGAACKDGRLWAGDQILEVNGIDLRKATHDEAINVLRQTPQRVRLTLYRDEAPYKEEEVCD

MPDZ_12, O75970 = biological target: T8, MPDZ_12, O75970
T8 sequence (O75970 1857-1958, limits assumed, looked up): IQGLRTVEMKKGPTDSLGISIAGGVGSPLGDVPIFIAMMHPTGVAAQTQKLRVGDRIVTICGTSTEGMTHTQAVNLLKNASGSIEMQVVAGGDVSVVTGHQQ

NHERF3_4, Q5T2W1 = biological target: T9, NHERF3_4, Q5T2W1
T9 sequence (Q5T2W1 373-468, limits assumed, looked up): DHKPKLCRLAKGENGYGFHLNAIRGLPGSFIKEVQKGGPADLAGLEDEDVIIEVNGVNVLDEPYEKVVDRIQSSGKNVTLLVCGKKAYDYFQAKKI

PARD3B_1, Q8TEW8 = biological target: T10, PARD3B_1, Q8TEW8
T10 sequence (Q8TEW8 196-299, limits assumed, looked up): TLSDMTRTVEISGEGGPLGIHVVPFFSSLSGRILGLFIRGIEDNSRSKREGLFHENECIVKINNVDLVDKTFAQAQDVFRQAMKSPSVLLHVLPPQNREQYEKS

PCLO, Q9Y6V0 = biological target: T11, PCLO, Q9Y6V0
T11 sequence (Q9Y6V0 4491-4600, limits assumed, looked up): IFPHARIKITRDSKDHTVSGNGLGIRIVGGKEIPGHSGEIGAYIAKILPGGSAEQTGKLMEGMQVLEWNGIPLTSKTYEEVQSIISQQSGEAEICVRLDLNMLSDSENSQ

SIPA1L2, Q9P2F8 = biological target: T12, SIPA1L2, Q9P2F8
T12 sequence (Q9P2F8 945-1036, limits assumed, looked up): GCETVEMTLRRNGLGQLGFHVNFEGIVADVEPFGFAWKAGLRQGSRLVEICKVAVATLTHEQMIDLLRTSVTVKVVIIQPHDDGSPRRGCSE

SNTB1, Q13884 = biological target: T13, SNTB1, Q13884
T13 sequence (Q13884 107-205, limits assumed, looked up): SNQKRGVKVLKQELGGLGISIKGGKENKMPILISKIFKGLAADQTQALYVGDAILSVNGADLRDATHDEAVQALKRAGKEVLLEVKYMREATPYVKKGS

## MHIQEKGFHV [EPHA6, Q9UF33]
ARHGAP21, Q5T5U3
  pKd: below the threshold
ARHGEF11, O15085
  pKd: below the threshold
DFNB31_3, Q9P202
  pKd: 4.07
DLG4_2, P78352
  pKd: below the threshold
FRMPD2_1, Q68DX3
  pKd: below the threshold
GRIP1_2, Q9Y3R0
  pKd: below the threshold
GRIP1_7, Q9Y3R0
  pKd: below the threshold
GRIP2_5, Q9C0E4
  pKd: below the threshold
IL16_3, Q14005
  pKd: below the threshold
IL16_4, Q14005
  pKd: 3.55
Inadl_3, Q8NI35
  pKd: below the threshold
LAP2, Q96RT1
  pKd: below the threshold
LNX1_3, Q8TBB1
  pKd: below the threshold
LNX2_3, Q8N448
  pKd: below the threshold
MAGI2_3, Q86UL8
  pKd: below the threshold
MAGI2_6, Q86UL8
  pKd: below the threshold
MAST1, Q9Y2H9
  pKd: 3.69
MPDZ_10, O75970
  pKd: below the threshold
MPDZ_12, O75970
  pKd: below the threshold
NHERF3_4, Q5T2W1
  pKd: below the threshold
PARD3B_1, Q8TEW8
  pKd: 4.89
PCLO, Q9Y6V0
  pKd: below the threshold
SIPA1L2, Q9P2F8
  pKd: below the threshold
SNTB1, Q13884
  pKd: below the threshold

## TRKRSGEAAV [PFKM, P08237]
ARHGAP21, Q5T5U3
  pKd: 3.83
ARHGEF11, O15085
  pKd: below the threshold
DFNB31_3, Q9P202
  pKd: below the threshold
DLG4_2, P78352
  pKd: 3.93
FRMPD2_1, Q68DX3
  pKd: 4
GRIP1_2, Q9Y3R0
  pKd: below the threshold
GRIP1_7, Q9Y3R0
  pKd: below the threshold
GRIP2_5, Q9C0E4
  pKd: below the threshold
IL16_3, Q14005
  pKd: below the threshold
IL16_4, Q14005
  pKd: 3.64
Inadl_3, Q8NI35
  pKd: below the threshold
LAP2, Q96RT1
  pKd: 3.48
LNX1_3, Q8TBB1
  pKd: below the threshold
LNX2_3, Q8N448
  pKd: below the threshold
MAGI2_3, Q86UL8
  pKd: below the threshold
MAGI2_6, Q86UL8
  pKd: below the threshold
MAST1, Q9Y2H9
  pKd: 4.08
MPDZ_10, O75970
  pKd: below the threshold
MPDZ_12, O75970
  pKd: below the threshold
NHERF3_4, Q5T2W1
  pKd: below the threshold
PARD3B_1, Q8TEW8
  pKd: below the threshold
PCLO, Q9Y6V0
  pKd: below the threshold
SIPA1L2, Q9P2F8
  pKd: below the threshold
SNTB1, Q13884
  pKd: below the threshold

## SLNANEVEWF [RNF130, Q86XS8]
ARHGAP21, Q5T5U3
  pKd: 4.49
ARHGEF11, O15085
  pKd: 3.96
DFNB31_3, Q9P202
  pKd: 4.16
DLG4_2, P78352
  pKd: 3.51
FRMPD2_1, Q68DX3
  pKd: below the threshold
GRIP1_2, Q9Y3R0
  pKd: 3.68
GRIP1_7, Q9Y3R0
  pKd: below the threshold
GRIP2_5, Q9C0E4
  pKd: below the threshold
IL16_3, Q14005
  pKd: below the threshold
IL16_4, Q14005
  pKd: below the threshold
Inadl_3, Q8NI35
  pKd: below the threshold
LAP2, Q96RT1
  pKd: below the threshold
LNX1_3, Q8TBB1
  pKd: below the threshold
LNX2_3, Q8N448
  pKd: below the threshold
MAGI2_3, Q86UL8
  pKd: 3.7
MAGI2_6, Q86UL8
  pKd: 3.81
MAST1, Q9Y2H9
  pKd: 3.96
MPDZ_10, O75970
  pKd: below the threshold
MPDZ_12, O75970
  pKd: below the threshold
NHERF3_4, Q5T2W1
  pKd: below the threshold
PARD3B_1, Q8TEW8
  pKd: 4.35
PCLO, Q9Y6V0
  pKd: below the threshold
SIPA1L2, Q9P2F8
  pKd: 3.54
SNTB1, Q13884
  pKd: below the threshold
